We go through one molecule from paper PMC9696579 (Nature structural & molecular biology, 2022).

Where no end group is shown, it is not given here. 3xPEG = linker of three PEG units

Test [1] addresses human PKA-Cα (PKA catalytic subunit alpha), purified, used in fluorescence polarization (human, UniProt P17612 1-351). In words: fluorescence polarisation. (In fluorescence polarisation assays a small probe gives low polarisation when free and higher when bound to something large.)
The target of test [2] is mouse PKA-Cα (PKA catalytic subunit alpha), purified (mouse, UniProt P05132 1-351). In words: fluorescence polarisation.

As a reminder, the Kd is the equilibrium constant for the complex coming apart. A higher Kd goes with a looser complex. Take {FAM-3xPEG}-SADVSSAWAQHVTKMVARRGAILP [FAM-labeled standard SMO PKI peptide (SMO residues 615–638)]: the Kd was 823 nM in test [1] and 911 nM in test [2].
